From PMC12407373, “Kindlin Regulates Mechanosensitive Activation and Adhesion Assembly of Integrin beta6” (Advanced Science, 2025)
Where no end group is shown, it is not given here.

T1: full-length mouse kindlin2 (mouse, UniProt Q8CIB5 1-680)
T1 construct: full-length mouse kindlin2, cloned into pET28a with 10xHis-SUMO tag and HRV-3C site at the N-terminal; also called kindlin2 protein; source: Escherichia coli Rosetta(DE3), purified (IMAC, tag cleavage by HRV 3C, SEC); not shown: 10xHis, N-terminal, cleaved; SUMO, N-terminal, cleaved
T1 sequence (looked up): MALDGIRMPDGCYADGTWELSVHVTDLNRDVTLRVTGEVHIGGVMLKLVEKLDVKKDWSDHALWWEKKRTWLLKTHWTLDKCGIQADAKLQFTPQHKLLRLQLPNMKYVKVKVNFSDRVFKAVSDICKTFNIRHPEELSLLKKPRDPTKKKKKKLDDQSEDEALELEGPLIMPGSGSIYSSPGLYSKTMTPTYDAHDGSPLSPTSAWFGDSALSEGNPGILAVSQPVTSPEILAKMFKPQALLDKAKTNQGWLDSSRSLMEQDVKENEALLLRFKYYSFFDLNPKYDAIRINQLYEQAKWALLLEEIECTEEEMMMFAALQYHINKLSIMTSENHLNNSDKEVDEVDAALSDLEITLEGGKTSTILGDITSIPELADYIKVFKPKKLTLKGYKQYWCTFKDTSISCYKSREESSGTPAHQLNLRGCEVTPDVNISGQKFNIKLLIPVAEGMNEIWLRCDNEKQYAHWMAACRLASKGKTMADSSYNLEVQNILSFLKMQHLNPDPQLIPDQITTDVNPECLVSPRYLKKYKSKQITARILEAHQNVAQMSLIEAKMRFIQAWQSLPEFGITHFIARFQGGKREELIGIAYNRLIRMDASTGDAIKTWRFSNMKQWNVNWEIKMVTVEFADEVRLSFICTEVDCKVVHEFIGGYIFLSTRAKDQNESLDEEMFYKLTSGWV

B1: FITC-labeled cytoplasmic tail of wildtype integrin β1 (peptide, UniProt P05556 752-798, looked up)
peptide: KLLMIIHDRREFAKFEKEKMNAKWDTGENPIYKSAVTTVVNPKYEGK
modifications: also: FITC label, position not given here
notes: cytoplasmic tail of integrin β1; also called cytoplasmic tail of integrin β1; integrin β tail peptide; source: synthetic peptide, synthesized by Sangon Biotech
B2: FITC-labeled cytoplasmic tail of wildtype integrin β6 (peptide, UniProt P18564 731-788, looked up)
peptide: KLLVSFHDRKEVAKFEAERSKAKWQTGTNPLYRGSTSTFKNVTYKHREKQKVDLSTDC
modifications: also: FITC label, position not given here
notes: cytoplasmic tail of integrin β6; also called cytoplasmic tail of integrin β6; integrin β tail peptide; source: synthetic peptide, synthesized by Sangon Biotech

Molecular target: T1, full-length mouse kindlin2
Assay: MST; Monolith NT.115; FITC-labeled tail peptide constant at 10 µM, kindlin2 titrated 42.5 to 0.0013 µM; 20 mM Tris pH 7.5, 200 mM sodium chloride, 1 mM TCEP, 5% glycerol; 10-20% LED power; Kd model
Details: both partners purified

Row | Binder | Kd [µM]
1 | B1 | 0.42
2 | B2 | 26.6
